Assays:
[1] = target: T1, human folate receptor alpha (hFOLR1) (human, UniProt P15328 25-234); assay: cell-based or functional assay
[2] = target: T2, murine folate receptor alpha (mouse, UniProt P35846 25-232); assay: FACS, CHO-mFOLR1 cells;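 further: flow cytometry binding of serially diluted test antibodies to transfected CHO cells on ice, mean fluorescence intensity, parental CHO cells give background, Kd from one-site specific binding fit with Hill slope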
T2 construct: Expressed on the surface of stably transfected CHO cells; also called mouse FolR1; CHO-mouse FolR1
T2 sequence (P35846 25-232 limits assumed): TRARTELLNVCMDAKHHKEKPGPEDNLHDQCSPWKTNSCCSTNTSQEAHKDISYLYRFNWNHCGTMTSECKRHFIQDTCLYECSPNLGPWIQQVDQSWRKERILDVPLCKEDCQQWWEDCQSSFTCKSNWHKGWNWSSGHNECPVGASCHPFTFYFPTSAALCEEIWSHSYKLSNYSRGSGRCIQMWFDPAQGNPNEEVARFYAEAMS
Description: (§1) CHO cells were transfected to stably express human (CHO-hFOLR1), cynomolgus (CHO-cFOLR1), or mouse (CHO-mFOLR1) target molecule FOLR1 on the cell surface. Parental CHO cells were used as a negative control to determine background binding levels. Parental CHO and stably transfected CHO-hFOLR1, CHO-cFOLR1, and CHO-mFOLR1 cells were cultured in Ham's F-12: high glucose DMEM (50:50) (Corning, Cellgro-Mediatech) supplemented with 10% heat-inactivated fetal bovine serum (Corning, Cellgro-Mediatech), 1% Penicillin/Streptomycin (Corning, Cellgro-Mediatech) and 2 mmol/L-glutamax (Life Technology).
A mixture of fluoresecent-labeled parental CHO cells and unlabeled CHO-hFOLRlcells were prepared as follows. Parental CHO cells were washed twice in PBS and incubated in PBS containing with 1 nM CellTrace™ Oregon Green488® (Life Technologies) at 37° C. for 30 minutes. Labeled parental CHO cells were then washed 2× with Ham's F-12 media and 2× with FACS buffer (PBS with 1% bovine serum albumin). Unlabeled CHO-hFOLR1 cells were similarly washed and prepared. Labeled parental CHO and unlabeled CHO-hFOLR1 cells were combined at 1:1 ratio and seeded at 50 μL per well (200,000 cells per well) in 96 well polypropylene plates. Cells were mixed with 50 μL of test antibodies (i.e., anti-FOLR1 variants) serially diluted in FACS buffer and incubated on ice for 60 mins. […] Data were analyzed using FlowJo® software (FlowJo, LLC; Ashland, OR) to determine mean fluorescence intensities. Binding constants were calculated using the statistical software, GraphPad Prism (GraphPad Software; La Jolla, CA) using the nonlinear regression equation, one site-specific binding with Hill slope. Secondary antibody alone was used as a control, in addition to measuring non-specific antibody binding to CHO parental cells.

[3] = target: T1, human folate receptor alpha (hFOLR1); assay: FACS, CHO-hFOLR1 cells;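 further: flow cytometry of serially diluted antibodies binding CHO cells stably expressing the receptor, 60 min on ice, mixed with dye-tagged parental CHO as background control, one-site specific fit with Hill slope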
[4] = target: T3, cynomolgus monkey folate receptor alpha (cynomolgus monkey, UniProt P15328 25-234 (human entry)); assay: FACS, CHO-cFOLR1 cells
T3 construct: Expressed on the surface of stably transfected CHO cells; also called cyno FolR1; CHO-cyno FolR1
T3 sequence (P15328 other isoform, or with tags, fused parts or gaps limits assumed): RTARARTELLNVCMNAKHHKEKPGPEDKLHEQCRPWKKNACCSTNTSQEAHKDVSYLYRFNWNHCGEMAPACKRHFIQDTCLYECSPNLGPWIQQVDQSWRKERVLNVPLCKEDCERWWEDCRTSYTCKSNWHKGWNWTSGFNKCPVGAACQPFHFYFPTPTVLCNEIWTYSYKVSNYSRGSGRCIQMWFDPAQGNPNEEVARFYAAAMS

human FOLR1-HIS [5] = target: T4, human FOLR1-HIS (human, UniProt P15328 25-233); assay: SPR (Biacore), antibody captured on anti-Fc, human FOLR1-HIS analyte, 25 C
T4 construct: Analyte of the Biacore assay; also called FolRα-ECD; extracellular domain of FOLR1; not shown: HIS tag
T4 sequence (P15328 25-233 limits assumed): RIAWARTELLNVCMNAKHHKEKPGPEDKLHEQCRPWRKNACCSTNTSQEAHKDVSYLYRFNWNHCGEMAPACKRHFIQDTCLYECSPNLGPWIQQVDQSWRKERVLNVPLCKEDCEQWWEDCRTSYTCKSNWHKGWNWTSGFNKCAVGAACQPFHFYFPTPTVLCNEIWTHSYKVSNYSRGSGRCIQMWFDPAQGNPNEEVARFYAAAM

[6] = target: T5, cynomolgus folate receptor alpha on CHO cells (cynomolgus monkey, UniProt P15328 25-234 (human entry)); assay: FACS cell binding on CHO-c-FOLRα cells (row 'Cross-reactivity, Cyno')
T5 construct: Stably expressed on CHO cells; also called CHO-c-FOLRα; CHO-cFOLR1
T5 sequence (P15328 other isoform, or with tags, fused parts or gaps limits assumed): as the sequence (P15328 other isoform, or with tags, fused parts or gaps limits assumed) above
Description: as §1
(§2) A mixture of fluoresecent-labeled parental CHO cells and unlabeled CHO-hFOLRlcells were prepared as follows. Parental CHO cells were washed twice in PBS and incubated in PBS containing with 1 nM CellTrace™ Oregon Green488® (Life Technologies) at 37° C. for 30 minutes. Labeled parental CHO cells were then washed 2× with Ham's F-12 media and 2× with FACS buffer (PBS with 1% bovine serum albumin). Unlabeled CHO-hFOLR1 cells were similarly washed and prepared. […] Data were analyzed using FlowJo® software (FlowJo, LLC; Ashland, OR) to determine mean fluorescence intensities. Binding constants were calculated using the statistical software, GraphPad Prism (GraphPad Software; La Jolla, CA) using the nonlinear regression equation, one site-specific binding with Hill slope. […]

[7] = target: T6, human folate receptor alpha (hFOLR1) on cells (human, UniProt P15328 25-234); assay: FACS cell binding on CHO-h-FOLRα cells
T6 construct: It is endogenous on the Igrov1 and OVCAR3 tumour cells of the killing assays; also called CHO-h-FOLRα; CHO-hFOLR1
T6 sequence (P15328 25-234 limits assumed): as the sequence (P15328 other isoform, or with tags, fused parts or gaps limits assumed) above, with T2I, R4W, K37R, R117Q, P146A, Y171H counted along it
Description: as §1, §2

human FOLR1-HIS [8] = target: T4, human FOLR1-HIS; assay: SPR (Biacore)
[9] = target: T7, human folate receptor beta on cells (human, UniProt P14207 17-230); assay: cell-based or functional assay
T7 sequence (P14207 17-230): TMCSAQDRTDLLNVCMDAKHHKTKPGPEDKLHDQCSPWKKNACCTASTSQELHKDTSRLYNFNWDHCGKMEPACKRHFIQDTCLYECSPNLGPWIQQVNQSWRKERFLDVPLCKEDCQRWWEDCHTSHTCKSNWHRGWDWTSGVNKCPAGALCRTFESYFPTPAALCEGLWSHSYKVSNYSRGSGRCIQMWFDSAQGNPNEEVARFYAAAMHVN

[10] = target: T8, human folate receptor alpha on cells (human, UniProt P15328 25-234); assay: cell-based or functional assay
T8 sequence (P15328 25-234 limits assumed): as the sequence (P15328 other isoform, or with tags, fused parts or gaps limits assumed) above, with T2I, R4W, K37R, R117Q, P146A, Y171H counted along it

[11] = target: T6, human folate receptor alpha (hFOLR1) on …; assay: cell-based or functional assay
[12] = target: T8, human folate receptor alpha on cells; assay: FACS cell binding (MFI) on 293T-hFOLR1 cells; parental 293T cells as negative control
[13] = target: T8, human folate receptor alpha on cells; assay: FACS cell binding (MFI) on 293T cells stably expressing hFOLR1 (293T-hFOLR1); parental 293T cells as negative control
[14] = target: T7, human folate receptor beta on cells; assay: FACS cell binding (MFI) on 293T cells stably expressing hFOLR2 (293T-hFOLR2); parental 293T cells as negative control

T1 sequence (P15328 25-234 limits assumed): as the sequence (P15328 other isoform, or with tags, fused parts or gaps limits assumed) above, with T2I, R4W, K37R, R117Q, P146A, Y171H counted along it

B1: SRP1848-E06 (antibody, V domains shown)
VH: EVQLVESGGGLVQPSGSLRLSCAASGFNINRYYIHWVRQAPGKGLEWVGGITPNDGYTDYADSVEGRFTTSADTSKNTAYLQMNSLRAEDTAVYYCARGTWSWPSGHSYYLDYWGQGTLVTVSS
VL: not shown
notes: HC variant paired with trastuzumab LC, cell-free expressed, HIS- and FLAG-tagged; also called Antibody 35
Igrov, 2° Antibody Cell Killing, Nb-SC239: EC50 [1]: 0.025 nM | Igrov, 2° Antibody Cell Killing, Nb-SC239: Span [1]: 74% | KB, 2° Antibody Cell Killing, Nb-239: Span [1]: 93% | Bmax (MFI) [2]: 2350 MFI | Kd [2]: 1.2 nM | Bmax (MFI) [3]: 25600 MFI | Kd [3]: 0.48 nM | Bmax (MFI) [4]: 15800 MFI | Kd [4]: 0.26 nM

B2: SRP2060-E10 (antibody, V domains shown)
VH: EVQLLESGGGLVQPGGSLRLSCAFSGFSLSTFGMGVGWVRQAPGKGLEWVSHIWWDDDKYYHPALKGRFTISKDNSKNTVYLQMNSLRAEDTAVYYCGRNHFPHYYGSSHWYFNVWGQGTTVTVSS
VL: EIVMTQSPATLSLSPGERATLSCKASQDINSYLSWYQQKPGQAPRLLIYRANRLVDGIPARFSGSGSGTDYTLTISSLEPEDFAVYYCLQYDEFPYTFGGGTKVEIK
notes: also called Antibody 56
Kd (human FOLR1-HIS [5]): 2.06 nM | koff (human FOLR1-HIS [5]): 0.0012 s⁻¹ | kon (human FOLR1-HIS [5]): 582000 M⁻¹ s⁻¹

B3: SRP2060-B01 (antibody, V domains shown)
VH: EVQLLESGGGLVQPGGSLRLSCALSGFSLSTFGMGVGWVRQATGKGLEWVSHIWWDDDKYYHPALKGRFTISKDNSKNTVHLQMNSLRAEDTAVYYCGRNHFPHYYGSSHWYFNVWGQGTTVTVSS
VL: DIQMTQSPSTLSASVGDRVTITCKASQDINSYLSWYQQKPGKAPKLLIYRANRLVDGVPSRFSGSGSGTEFTLTISSLQPDDFATYYCLQYDEFPYTFGGGTKVEIK
notes: also called Antibody 58
Kd (human FOLR1-HIS [5]): 2.62 nM | koff (human FOLR1-HIS [5]): 0.00147 s⁻¹ | kon (human FOLR1-HIS [5]): 561000 M⁻¹ s⁻¹

B4: SRP2060-E05 (antibody, V domains shown)
VH: EVQLLESGGGLVQPGGSLRLSCAFSGFSLSTFGMGVGWVRQAPGKGLEWVSHIWWDDDKYYHPALKGRFTVSKDNSKNTVYLQMNSLRAEDTAVYYCGRNHFPHYYGSSHWYFNVWGQGTTVTVSS
VL: EIVMTQSPATLSLSPGERATLSCKASQDINSYLSWYQQKPGQAPRLLIYRANRLVDGIPARFSGSGSGTDYTLTISSLEPEDFAVYYCLQYDEFPYTFGGGTKVEIK
notes: also called Antibody 57
Kd (human FOLR1-HIS [5]): 2.92 nM | koff (human FOLR1-HIS [5]): 0.00158 s⁻¹ | kon (human FOLR1-HIS [5]): 541000 M⁻¹ s⁻¹

B5: SRP2060-A06 (antibody, V domains shown)
VH: EVQLLESGGGLVQPGGSLRLSCAFSGFSLSTFGMGVGWVRQAPGKGLEWVGHIWWDDDKYYYPALKGRFTISKDNSKNTVYLQMNSLRAEDTAVYYCGRNHFPHYYGSSHWYFDVWGQGTTVTVSS
VL: DIQMTQSPSTLSASVGDRVTITCKASQDINSYLSWYQQKPGKAPKLLIYRANRLVDGVPSRFSGSGSGTEFTLTISSLQPDDFATYYCLQYDEFPYTFGGGTKVEIK
notes: also called Antibody 59
Kd (human FOLR1-HIS [5]): 13.3 nM | koff (human FOLR1-HIS [5]): 0.00729 s⁻¹ | kon (human FOLR1-HIS [5]): 547000 M⁻¹ s⁻¹

B6: SRP1848-G11 (antibody, V domains shown)
VH: EVQLVESGGGLVQPGGSLRLSCAASGFNISSTDIHWVRQAPGKGLEWVAYITPAGGATWYADSVKGRFTISADTSKNTAYLQMNSLRAEDTAVYYCARYPYWFSGYMDYWGQGTLVTVSS
VL: not shown
notes: HC variant paired with trastuzumab LC, cell-free expressed, HIS- and FLAG-tagged; also called Antibody 54
Igrov, 2° Antibody Cell Killing, Nb-SC239: EC50 [1]: 0.023 nM | Igrov, 2° Antibody Cell Killing, Nb-SC239: Span [1]: 84% | KB, 2° Antibody Cell Killing, Nb-239: EC50 [1]: 0.04 nM | KB, 2° Antibody Cell Killing, Nb-239: Span [1]: 97% | Bmax (MFI) [2]: 2740 MFI | Kd [2]: 7.6 nM | Bmax (MFI) [3]: 27200 MFI | Kd [3]: 0.68 nM | Bmax (MFI) [4]: 11800 MFI | Kd [4]: 0.26 nM

B7: 1848-B10, Y180/F404 (antibody, V domains shown)
VH: EVQLVESGGGLVQPGGSLRLSCAASGFNTTTKSIHWVRQAPGKGLEWVGEIYPRDGITDYADSVKGRFTISADTSKNTAYLQMNSLRAEDTAVYYCARGGWHWRSGYSYYLDYWGQGTLVTVSS
VL: not shown
modifications: para-azidomethyl-L-phenylalanine (pAMF) at HC-Y180 and HC-F404 (EU numbering; both lie in the heavy chain constant region, not in this VH piece)
notes: Lead antibody with non-natural amino acid sites Y180/F404
Kd [6]: 3.3 nM | Kd [7]: 4.5 nM | Kd (human FOLR1-HIS [8]): 1.4 nM

B8: 1848-H01, Y180/F404 (antibody, V domains shown)
VH: EVQLVESGGGLVQPGGSLRLSCAASGFNIRTQSIHWVRQAPGKGLEWIGDIFPIDGITDYADSVKGRFTISADTSKNTAYLQMNSLRAEDTAVYYCARGSWSWPSGMDYYLDYWGQGTLVTVSS
VL: not shown
modifications: para-azidomethyl-L-phenylalanine (pAMF) at HC-Y180 and HC-F404 (EU numbering; both lie in the heavy chain constant region, not in this VH piece)
notes: as for B7
Kd [6]: 3.8 nM | Kd [7]: 3.7 nM | Kd (human FOLR1-HIS [8]): 1 nM

B9: ADC Molecule 4 (1848-H01, Y180/F404, Conjugate P) (antibody, V domains shown)
VH: EVQLVESGGGLVQPGGSLRLSCAASGFNIRTQSIHWVRQAPGKGLEWIGDIFPIDGITDYADSVKGRFTISADTSKNTAYLQMNSLRAEDTAVYYCARGSWSWPSGMDYYLDYWGQGTLVTVSS
VL: not shown
modifications: Non-natural amino acid (para-azidomethyl-L-phenylalanine) at HC-Y180 and HC-F404 (EU, in the constant region, which has no SEQ ID NO), each linked to cleavable ValCit hemiasterlin (Conjugate P); DAR about 3.7-3.8
EC50 of cytotoxic activity on 293T cells expressing FolRβ [9]: ~100 nM | EC50 of cytotoxic activity on 293T cells expressing FolRα [10]: < 10 nM

B10: ADC Molecule 4 (1848-H01, Y180/F404, Conjugate P) (antibody, V domains shown)
VH: EVQLVESGGGLVQPGGSLRLSCAASGFNIRTQSIHWVRQAPGKGLEWIGDIFPIDGITDYADSVKGRFTISADTSKNTAYLQMNSLRAEDTAVYYCARGSWSWPSGMDYYLDYWGQGTLVTVSS
VL: not shown
modifications: para-azidomethyl-L-phenylalanine at HC-Y180 and HC-F404 (EU numbering, heavy chain constant region), each linked to the cleavable hemiasterlin linker-drug of Conjugate P; DAR about 3.7-3.8
cell killing EC50 on Igrov1 cells in the presence of 0.5 uM unconjugated 1848-H01 as competitor [11]: > 33 nM | cell killing EC50 on OVCAR3 cells in the presence of 0.5 uM unconjugated 1848-H01 as competitor [11]: > 33 nM

B11: antibody 1848-H01 (antibody, V domains shown)
VH: EVQLVESGGGLVQPGGSLRLSCAASGFNIRTQSIHWVRQAPGKGLEWIGDIFPIDGITDYADSVKGRFTISADTSKNTAYLQMNSLRAEDTAVYYCARGSWSWPSGMDYYLDYWGQGTLVTVSS
VL: not shown
notes: the light chain is that of trastuzumab; It was tested as an IgG (detected with anti-human IgG); also called SRP1848-H01
EC50 (read off the curve) [12]: ~10 nM | Kd [13]: 9.9 nM

B12: antibody 1848-B10 (antibody, V domains shown)
VH: EVQLVESGGGLVQPGGSLRLSCAASGFNTTTKSIHWVRQAPGKGLEWVGEIYPRDGITDYADSVKGRFTISADTSKNTAYLQMNSLRAEDTAVYYCARGGWHWRSGYSYYLDYWGQGTLVTVSS
VL: not shown
notes: the light chain is that of trastuzumab; It was tested as an IgG; also called SRP1848-B10
binding result [14]: no binding | Kd [13]: 6.4 nM

B13: SRP1848-E03 (antibody, V domains shown)
VH: EVQLVESGGGLAQPGGSLRLSCAASGFNIGNYYIHWVRQAPGKGLEWVGGITPRDGFTDYADSVKGRFTISADTSKNTAYLQVNSLRAEDTAVYYCARGSWSWPAGHSYYLDYWGQGTLVTVSS
VL: not shown
notes: HC variant paired with trastuzumab LC, cell-free expressed, HIS- and FLAG-tagged; also called Antibody 33
Igrov, 2° Antibody Cell Killing, Nb-SC239: EC50 [1]: 0.027 nM | Igrov, 2° Antibody Cell Killing, Nb-SC239: Span [1]: 73% | KB, 2° Antibody Cell Killing, Nb-239: EC50 [1]: 0.057 nM | KB, 2° Antibody Cell Killing, Nb-239: Span [1]: 94% | Bmax (MFI) [2]: 5940 MFI | Kd [2]: 0.5 nM | Bmax (MFI) [3]: 26700 MFI | Kd [3]: 0.76 nM | Bmax (MFI) [4]: 17400 MFI | Kd [4]: 0.43 nM
